Measured values as given in article PMC4145800, “A tethered delivery mechanism explains the catalytic action of a microtubule polymerase” (eLife, 2014).

Molecular target: T1, wild-type (polymerization-competent) yeast αβ-tubulin (yeast, UniProt P09733 1-447; P02557 1-457)
T1 construct: α-tubulin of yeast; β-tubulin of yeast, wild type; source: overexpressed in Saccharomyces cerevisiae, purified; copies: 1 + 1
Assay: AUC; sedimentation velocity; seven concentrations of TOG1 or TOG2 (44 nM-4.5 μM) titrated into 0.35 μM αβ-tubulin; 1:1 binding isotherm fitted; RB100 with 20 μM GTP, 20°C
Conditions: both partners purified

- Kd: 160 nM
- stoichiometry N: 1
B1: TOG2 domain from Stu2p, TOG2(318-560) (domain or fragment)
chain: MLPEETILDKLPKDFQERITSSKWKDRVEALEEFWDSVLSQTKKLKSTSQNYSNLLGIYGHIIQKDANIQAVALAAQSVELICDKLKTPGFSKDYVSLVFTPLLDRTKEKKPSVIEAIRKALLTICKYYDPLASSGRNEDMLKDILEHMKHKTPQIRMECTQLFNASMKEEKDGYSTLQRYLKDEVVPIVIQIVNDTQPAIRTIGFESFAILIKIFGMNTFVKTLEHLDNLKRKKIEETVKTL
